Test results: US20250043302A1, “MUTATED HYDROXYPHENYLPYRUVATE DIOXYGENASE POLYPEPTIDE, AND CODING GENE AND USE THEREOF” (BEIJING DABEINONG BIOTECHNOLOGY CO., LTD., priority 2021, published 2025)

Legend:
Assay type in all cases: in vivo
[1] = tested on: Arabidopsis thaliana T1 plants; assay: Mesotrione tolerance of transgenic Arabidopsis thaliana T1 plants (spray, bleached leaf area grade, damage score); set-up: Scores: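 damage score 0-100 computed as Σ(N×S)/(T×M)×100 over grades 0-3 with higher meaning more damage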; details: Arabidopsis thaliana T1 plants; for Grade 0 (classification and statistics of the grade of pesticide damage; number of plants) / Grade 1 (classification and statistics of the grade of pesticide damage; number of plants) / Grade 2 (classification and statistics of the grade of pesticide damage; number of plants) / Grade 3 (classification and statistics of the grade of pesticide damage; number of plants): 16 plants
How it was run: (§1)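 Damage was assessed by bleaching grade (0 none; 1 <50%; 2 >50%; 3 100% of leaf area) one week after spraying. Sprays on 18-day-old T1 and wild-type plants used field-rate multiples: topramezone 25–200, isoxaflutole 35–280, mesotrione 52.5–420 g ai/ha.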

[2] = tested on: Arabidopsis thaliana T1 plants; assay: Isoxaflutole tolerance of transgenic Arabidopsis thaliana T1 plants (spray, bleached leaf area grade, damage score); set-up: Scores (pesticide damage): scale not given here; details: spray, Arabidopsis thaliana T1 plants; for Classification and statistics of the grade of pesticide damage: Grade 0 (number of plants) / Classification and statistics of the grade of pesticide damage: Grade 1 (number of plants) / Classification and statistics of the grade of pesticide damage: Grade 2 (number of plants) / Classification and statistics of the grade of pesticide damage: Grade 3 (number of plants): 16 plants
How it was run: as §1

[3] = tested on: Arabidopsis thaliana T1 plants; assay: Topramezone tolerance of transgenic Arabidopsis thaliana T1 plants (spray, bleached leaf area grade, damage score); details: 7 DAT, Table 4; for Classification and statistics of the grade of pesticide damage: Grade 0 / Classification and statistics of the grade of pesticide damage: Grade 1 / Classification and statistics of the grade of pesticide damage: Grade 2 / Classification and statistics of the grade of pesticide damage: Grade 3: number of plants; for Scores: pesticide damage score 0-100
How it was run: as §1

[4] = isoxaflutole 35 g ai/ha (0.5x field concentration)
[5] = isoxaflutole 70 g ai/ha (1x field concentration)

B1: AtHPPDm-F372A-F383W-02: nucleotide sequence encoding Arabidopsis thaliana HPPD with F372A+F383W; vector DBN11733 (nucleic acid)
DNA: ATGGGACATCAGAATGCTGCTGTATCAGAAAATCAAAATCATGATGATGGAGCCGCCTCCTCACCAGGGTTTAAGTTGGTTGGGTTCTCCAAGTTTGTACGGAAGAACCCAAAATCCGACAAGTTCAAGGTTAAACGCTTCCACCACATTGAATTCTGGTGCGGCGACGCCACCAATGTTGCTCGGCGTTTTTCATGGGGTTTAGGCATGAGATTCTCAGCAAAGAGTGACCTGAGCACCGGCAACATGGTTCATGCTAGCTATCTCTTAACATCTGGAGATTTGAGGTTTCTTTTCACGGCGCCGTACTCACCATCACTCTCCGCCGGCGAGATCAAACCCACCACGACTGCAAGCATACCTTCATTTGATCATGGTAGTTGCAGATCCTTCTTCTCGTCGCACGGCCTAGGGGTGCGCGCGGTCGCCATCGAAGTTGAAGATGCAGAATCAGCGTTTAGTATCAGCGTGGCAAATGGAGCTATTCCTTCCTCCCCTCCAATTGTCCTCAATGAGGCTGTAACTATTGCCGAGGTGAAGTTGTATGGAGATGTTGTGCTGAGATATGTTTCTTACAAGGCAGAGGACACTGAGAAATCTGAATTTTTGCCTGGTTTTGAAAGGGTCGAGGATGCTTCAAGTTTTCCTCTTGATTACGGCATACGACGGTTGGATCACGCGGTTGGAAATGTACCAGAACTTGGGCCGGCGCTCACTTATGTGGCTGGTTTCACTGGATTCCATCAATTTGCTGAGTTCACAGCTGATGATGTTGGGACTGCTGAAAGTGGGTTGAACTCTGCAGTCCTCGCCTCTAATGATGAAATGGTGCTCCTCCCGATCAACGAGCCTGTGCATGGCACCAAAAGGAAATCACAAATACAGACATATCTTGAGCACAATGAAGGTGCAGGGCTTCAACATCTTGCACTGATGTCTGAAGACATTTTCCGTACGCTGAGAGAGATGAGGAAGAGAAGTAGTATTGGTGGATTTGACTTCATGCCTTCTCCCCCACCAACTTACTACCAGAACTTGAAGAAGAGGGTTGGTGATGTGCTATCTGATGACCAGATCAAGGAGTGTGAAGAATTGGGCATTCTTGTTGATCGGGACGACCAAGGAACATTACTGCAGATAGCCACAAAACCACTTGGTGACCGCCCCACTATTTGGATTGAGATCATACAAAGAGTCGGCTGCATGATGAAGGATGAGGAAGGAAAAGCATATCAATCTGGTGGTTGTGGCGGCTTTGGGAAAGGAAACTTCTCTGAGCTGTTCAAATCCATCGAGGAGTATGAGAAGACCTTGGAGGCCAAGCAGCTCGTGGGTTGA
modifications: AtHPPDm-F372A-F383W-02 Nucleotide Sequence
notes: vector DBN11733
- Resistance evaluation ([1]; mesotrione 52.5 g ai/ha): Moderately
- Scores ([1]; mesotrione 52.5 g ai/ha): 21
- Grade 0 (classification and statistics of the grade of pesticide damage; number of plants) ([1]; mesotrione 52.5 g ai/ha): 8
- Grade 1 (classification and statistics of the grade of pesticide damage; number of plants) ([1]; mesotrione 52.5 g ai/ha): 6
- Grade 2 (classification and statistics of the grade of pesticide damage; number of plants) ([1]; mesotrione 52.5 g ai/ha): 2
- Grade 3 (classification and statistics of the grade of pesticide damage; number of plants) ([1]; mesotrione 52.5 g ai/ha): 0
- Resistance evaluation ([1]; mesotrione 105 g ai/ha): Poorly resistant
- Scores ([1]; mesotrione 105 g ai/ha): 44
- Grade 0 (classification and statistics of the grade of pesticide damage; number of plants) ([1]; mesotrione 105 g ai/ha): 2
- Grade 1 (classification and statistics of the grade of pesticide damage; number of plants) ([1]; mesotrione 105 g ai/ha): 8
- Grade 2 (classification and statistics of the grade of pesticide damage; number of plants) ([1]; mesotrione 105 g ai/ha): 5
- Grade 3 (classification and statistics of the grade of pesticide damage; number of plants) ([1]; mesotrione 105 g ai/ha): 1
- Resistance evaluation [2, 4]: Highly
- Scores (pesticide damage) [2, 4]: 15
- Classification and statistics of the grade of pesticide damage: Grade 0 (number of plants) [2, 4]: 10
- Classification and statistics of the grade of pesticide damage: Grade 1 (number of plants) [2, 4]: 5
- Classification and statistics of the grade of pesticide damage: Grade 2 (number of plants) [2, 4]: 1
- Classification and statistics of the grade of pesticide damage: Grade 3 (number of plants) [2, 4]: 0
- Resistance evaluation [2, 5]: Moderately
- Scores (pesticide damage) [2, 5]: 29
- Classification and statistics of the grade of pesticide damage: Grade 0 (number of plants) [2, 5]: 5
- Classification and statistics of the grade of pesticide damage: Grade 1 (number of plants) [2, 5]: 9
- Classification and statistics of the grade of pesticide damage: Grade 2 (number of plants) [2, 5]: 1
- Classification and statistics of the grade of pesticide damage: Grade 3 (number of plants) [2, 5]: 1
- Classification and statistics of the grade of pesticide damage: Grade 0 ([3]; topramezone 25 g ai/ha (1×)): 9
- Classification and statistics of the grade of pesticide damage: Grade 1 ([3]; topramezone 25 g ai/ha (1×)): 7
- Classification and statistics of the grade of pesticide damage: Grade 2 ([3]; topramezone 25 g ai/ha (1×)): 0
- Classification and statistics of the grade of pesticide damage: Grade 3 ([3]; topramezone 25 g ai/ha (1×)): 0
- Classification and statistics of the grade of pesticide damage: Grade 0 ([3]; topramezone 100 g ai/ha (4×)): 6
- Classification and statistics of the grade of pesticide damage: Grade 1 ([3]; topramezone 100 g ai/ha (4×)): 7
- Classification and statistics of the grade of pesticide damage: Grade 2 ([3]; topramezone 100 g ai/ha (4×)): 1
- Classification and statistics of the grade of pesticide damage: Grade 3 ([3]; topramezone 100 g ai/ha (4×)): 2
- Scores ([3]; topramezone 25 g ai/ha (1×)): 15
- Scores ([3]; topramezone 100 g ai/ha (4×)): 31
- Resistance evaluation ([3]; topramezone 25 g ai/ha (1×)): highly
- Resistance evaluation ([3]; topramezone 100 g ai/ha (4×)): moderately
